According to article doi:10.1101/2021.08.20.457142:

B1: MKK7 D-site peptide (second D-site) / JNK1 alpha1 (MAPK8 isoform 1) L198A, full length (parent complex)
chain 1: SQPQRPRPTLQLPLANEAFEQP
chain 2: MSRSKRDNNFYSVEIGDSTFTVLKRYQNLKPIGSGAQGIVCAAYDAILERNVAIKKLSRPFQNQTHAKRAYRELVLMKCVNHKNIIGLLNVFTPQKSLEEFQDVYIVMELMDANLCQVIQMELDHERMSYLLYQMLCGIKHLHSAGIIHRDLKPSNIVVKSDCTLKILDFGLARTAGTSFMMTPYVVTRYYRAPEVIAGMGYKENVDLWSVGCIMGEMVCHKILFPGRDYIDQWNKVIEQLGTPCPEFMKKLQPTVRTYVENRPKYAGYSFEKLFPDVLFPADSEHNKLKASQARDLLSKMLVIDASKRISVDEALQHPYINVWYDPSEAEAPPPKIPDKQLDEREHTIEEWKELIYKEVMDLEERTKNGVIRGQPSPLAQVQQ

Variants of: B1

**Q.** chain 1 N16G was tested. Which screen value did it give?
**A.** 1.5 Z-score of the enrichment rate within one screen of 711 sequences

**Q.** For chain 1 N16H, which screen value is on record?
**A.** 1.43 Z-score of the enrichment rate within one screen of 711 sequences

**Q.** With chain 1 N16W as the variant, how does the screen value read?
**A.** 2.16 Z-score of the enrichment rate within one screen of 711 sequences

**Q.** Which screen value does the source give for chain 1 N16P here?
**A.** 0.929 Z-score of the enrichment rate within one screen of 711 sequences

**Q.** For chain 1 N16T, which screen value is on record?
**A.** 1.34 Z-score of the enrichment rate within one screen of 711 sequences

**Q.** How did the screen value turn out when chain 1 N16E was run?
**A.** 1.28 Z-score of the enrichment rate within one screen of 711 sequences

**Q.** chain 1 R5A, chain 1 Q11A was tested. Which screen value did it give?
**A.** 0.344 Z-score of the enrichment rate within one screen of 711 sequences

**Q.** How did the screen value turn out when chain 1 P8N was run?
**A.** 0.584 Z-score of the enrichment rate within one screen of 711 sequences

**Q.** Which screen value does the source give for chain 1 P8F here?
**A.** 1.67 Z-score of the enrichment rate within one screen of 711 sequences

**Q.** How did the screen value turn out when chain 1 P8K was run?
**A.** 1.01 Z-score of the enrichment rate within one screen of 711 sequences

**Q.** With chain 1 P8I as the variant, how does the screen value read?
**A.** 0.845 Z-score of the enrichment rate within one screen of 711 sequences

**Q.** How did the screen value turn out when chain 1 P8L was run?
**A.** 1.88 Z-score of the enrichment rate within one screen of 711 sequences

**Q.** How did the screen value turn out when chain 1 P8C was run?
**A.** 0.83 Z-score of the enrichment rate within one screen of 711 sequences

**Q.** Which screen value does the source give for chain 1 P13A, chain 1 N16A here?
**A.** 1.11 Z-score of the enrichment rate within one screen of 711 sequences

**Q.** Which screen value does the source give for chain 1 Q4A, chain 1 L10A here?
**A.** -0.57 Z-score of the enrichment rate within one screen of 711 sequences

**Q.** Which screen value does the source give for chain 1 P8A, chain 1 T9A here?
**A.** 0.477 Z-score of the enrichment rate within one screen of 711 sequences

**Q.** For chain 1 P3A, chain 1 N16A, which screen value is on record?
**A.** 1.34 Z-score of the enrichment rate within one screen of 711 sequences

**Q.** With chain 1 L10N as the variant, how does the screen value read?
**A.** -0.671 Z-score of the enrichment rate within one screen of 711 sequences

**Q.** For chain 1 L10P, which screen value is on record?
**A.** -0.494 Z-score of the enrichment rate within one screen of 711 sequences

**Q.** With chain 1 L10S as the variant, how does the screen value read?
**A.** -0.668 Z-score of the enrichment rate within one screen of 711 sequences

**Q.** How did the screen value turn out when chain 1 L10T was run?
**A.** -0.588 Z-score of the enrichment rate within one screen of 711 sequences

**Q.** Which screen value does the source give for chain 1 L10A, chain 1 P13A here?
**A.** -0.374 Z-score of the enrichment rate within one screen of 711 sequences

**Q.** Which screen value does the source give for chain 1 P3A, chain 1 R5A here?
**A.** 0.535 Z-score of the enrichment rate within one screen of 711 sequences

**Q.** For chain 1 P8A, chain 1 Q11A, which screen value is on record?
**A.** 0.343 Z-score of the enrichment rate within one screen of 711 sequences

**Q.** With chain 1 P3N as the variant, how does the screen value read?
**A.** 1.46 Z-score of the enrichment rate within one screen of 711 sequences

**Q.** Which screen value does the source give for chain 1 P3F here?
**A.** 1.46 Z-score of the enrichment rate within one screen of 711 sequences

**Q.** For chain 1 R5A, chain 1 T9A, which screen value is on record?
**A.** 0.257 Z-score of the enrichment rate within one screen of 711 sequences

**Q.** Which screen value does the source give for chain 1 Q4I here?
**A.** 1.36 Z-score of the enrichment rate within one screen of 711 sequences

**Q.** How did the screen value turn out when chain 1 Q4L was run?
**A.** 1.47 Z-score of the enrichment rate within one screen of 711 sequences

**Q.** How did the screen value turn out when chain 1 Q4F was run?
**A.** 1.4 Z-score of the enrichment rate within one screen of 711 sequences

**Q.** Which screen value does the source give for chain 1 A15F here?
**A.** 1.59 Z-score of the enrichment rate within one screen of 711 sequences

**Q.** For chain 1 A15K, which screen value is on record?
**A.** 1.73 Z-score of the enrichment rate within one screen of 711 sequences

**Q.** How did the screen value turn out when chain 1 A15S was run?
**A.** 1.46 Z-score of the enrichment rate within one screen of 711 sequences

**Q.** How did the screen value turn out when chain 1 A15I was run?
**A.** 0.806 Z-score of the enrichment rate within one screen of 711 sequences

**Q.** How did the screen value turn out when chain 1 L12N was run?
**A.** -0.321 Z-score of the enrichment rate within one screen of 711 sequences

**Q.** Which screen value does the source give for chain 1 L12A here?
**A.** -0.706 Z-score of the enrichment rate within one screen of 711 sequences

**Q.** chain 1 L12I was tested. Which screen value did it give?
**A.** 0.938 Z-score of the enrichment rate within one screen of 711 sequences

**Q.** Which screen value does the source give for chain 1 L12E here?
**A.** -0.637 Z-score of the enrichment rate within one screen of 711 sequences

**Q.** Which screen value does the source give for chain 1 R5A, chain 1 P6A here?
**A.** 0.351 Z-score of the enrichment rate within one screen of 711 sequences

**Q.** With chain 1 Q11G as the variant, how does the screen value read?
**A.** 0.875 Z-score of the enrichment rate within one screen of 711 sequences

**Q.** chain 1 Q11N was tested. Which screen value did it give?
**A.** 1.79 Z-score of the enrichment rate within one screen of 711 sequences

**Q.** For chain 1 Q11C, which screen value is on record?
**A.** 1.43 Z-score of the enrichment rate within one screen of 711 sequences

**Q.** How did the screen value turn out when chain 1 Q11W was run?
**A.** 2.17 Z-score of the enrichment rate within one screen of 711 sequences

**Q.** chain 1 L10A, chain 1 L14A was tested. Which screen value did it give?
**A.** -0.882 Z-score of the enrichment rate within one screen of 711 sequences

**Q.** With chain 1 P6C as the variant, how does the screen value read?
**A.** 0.713 Z-score of the enrichment rate within one screen of 711 sequences

**Q.** Which screen value does the source give for chain 1 P6A here?
**A.** 1.29 Z-score of the enrichment rate within one screen of 711 sequences

**Q.** For chain 1 P6T, which screen value is on record?
**A.** 1.07 Z-score of the enrichment rate within one screen of 711 sequences

**Q.** Which screen value does the source give for chain 1 P6Q here?
**A.** 1.26 Z-score of the enrichment rate within one screen of 711 sequences

**Q.** With chain 1 P13Q as the variant, how does the screen value read?
**A.** 1.52 Z-score of the enrichment rate within one screen of 711 sequences

**Q.** For chain 1 P13V, which screen value is on record?
**A.** 1.22 Z-score of the enrichment rate within one screen of 711 sequences

**Q.** With chain 1 P13D as the variant, how does the screen value read?
**A.** 1.95 Z-score of the enrichment rate within one screen of 711 sequences

**Q.** For chain 1 P13N, which screen value is on record?
**A.** 1.87 Z-score of the enrichment rate within one screen of 711 sequences

**Q.** With chain 1 L14A as the variant, how does the screen value read?
**A.** 0.48 Z-score of the enrichment rate within one screen of 711 sequences

**Q.** With chain 1 L14D as the variant, how does the screen value read?
**A.** 0.409 Z-score of the enrichment rate within one screen of 711 sequences

**Q.** With chain 1 L14F as the variant, how does the screen value read?
**A.** 1.33 Z-score of the enrichment rate within one screen of 711 sequences

**Q.** chain 1 Q4A, chain 1 R5A was tested. Which screen value did it give?
**A.** 0.359 Z-score of the enrichment rate within one screen of 711 sequences

**Q.** With chain 1 T9Q as the variant, how does the screen value read?
**A.** 0.994 Z-score of the enrichment rate within one screen of 711 sequences

**Q.** For chain 1 T9Y, which screen value is on record?
**A.** 1.15 Z-score of the enrichment rate within one screen of 711 sequences

**Q.** chain 1 T9F was tested. Which screen value did it give?
**A.** 1.43 Z-score of the enrichment rate within one screen of 711 sequences

**Q.** With chain 1 T9L as the variant, how does the screen value read?
**A.** 1.24 Z-score of the enrichment rate within one screen of 711 sequences

**Q.** For chain 1 R5W, which screen value is on record?
**A.** 0.845 Z-score of the enrichment rate within one screen of 711 sequences

**Q.** chain 1 R5V was tested. Which screen value did it give?
**A.** 0.568 Z-score of the enrichment rate within one screen of 711 sequences

**Q.** For chain 1 R5E, which screen value is on record?
**A.** 0.07 Z-score of the enrichment rate within one screen of 711 sequences

**Q.** chain 1 R5A was tested. Which screen value did it give?
**A.** 0.263 Z-score of the enrichment rate within one screen of 711 sequences

**Q.** With chain 1 R5P as the variant, how does the screen value read?
**A.** 0.594 Z-score of the enrichment rate within one screen of 711 sequences

**Q.** For chain 1 R7K, which screen value is on record?
**A.** 0.788 Z-score of the enrichment rate within one screen of 711 sequences

**Q.** chain 1 R7N was tested. Which screen value did it give?
**A.** -0.0352 Z-score of the enrichment rate within one screen of 711 sequences

**Q.** How did the screen value turn out when chain 1 R7E was run?
**A.** -0.371 Z-score of the enrichment rate within one screen of 711 sequences

**Q.** For chain 1 R7Q, which screen value is on record?
**A.** -0.0451 Z-score of the enrichment rate within one screen of 711 sequences

**Q.** chain 1 R7L was tested. Which screen value did it give?
**A.** 0.372 Z-score of the enrichment rate within one screen of 711 sequences

**Q.** For chain 1 R7I, which screen value is on record?
**A.** 0.221 Z-score of the enrichment rate within one screen of 711 sequences

**Q.** chain 1 R7G was tested. Which screen value did it give?
**A.** -0.481 Z-score of the enrichment rate within one screen of 711 sequences

**Q.** For chain 1 R7A, which screen value is on record?
**A.** 0.016 Z-score of the enrichment rate within one screen of 711 sequences

**Q.** With chain 1 R7F as the variant, how does the screen value read?
**A.** 0.186 Z-score of the enrichment rate within one screen of 711 sequences

**Q.** Which screen value does the source give for chain 1 R7M here?
**A.** 0.323 Z-score of the enrichment rate within one screen of 711 sequences
